According to patent US20120283168A1:
Square brackets hold non-standard residues; d marks the D form. Oic = O=C(O)[C@@H]1C[C@@H]2CCCC[C@@H]2N1; Tic = O=C(O)[C@@H]1Cc2ccccc2CN1; Dab = NCC[C@H](N)C(=O)O; Ac4c = NC1(C(=O)O)CCC1; Deg = CCC(N)(CC)C(=O)O; Aib = CC(C)(N)C(=O)O

Target: human CCR10 (human) (UniProt P46092)
Assay: cell-based or functional assay

Sequence of human CCR10 (human) (P46092 whole entry): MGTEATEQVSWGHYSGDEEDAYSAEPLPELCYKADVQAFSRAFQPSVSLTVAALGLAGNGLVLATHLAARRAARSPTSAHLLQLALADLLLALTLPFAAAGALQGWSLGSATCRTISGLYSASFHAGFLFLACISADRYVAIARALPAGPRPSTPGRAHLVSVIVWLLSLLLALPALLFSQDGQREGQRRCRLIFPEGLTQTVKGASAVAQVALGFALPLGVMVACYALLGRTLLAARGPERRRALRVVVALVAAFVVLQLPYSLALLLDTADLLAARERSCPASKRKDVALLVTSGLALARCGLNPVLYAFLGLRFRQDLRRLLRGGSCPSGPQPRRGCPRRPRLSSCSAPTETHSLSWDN

Substance | IC50 (nM) Calcium Flux Assay [nM] | IC50 (nM) Chemotaxis Assay [nM]
cyclo(-Trp-Cyp-Trp-Lys(Ac)-^DPro-Oic-) (peptide) | 28 | 2.3
cyclo(-Trp-Cyp-Trp-Dab-^DPro-Pro((4R)Bn)-) (peptide) | 26.1 | 2.3
cyclo(-Trp-Cyp-Trp-Dab-^DPro-Pro((4S)cHex)-) (peptide) | 54.3 | 140
cyclo(-Trp-Cyp-Trp-Ser-^DPro-Hyp(Bn)-) (peptide) | 12.6 | 35.4
cyclo(-Trp(5OH)-Chx-Trp(5OH)-Arg-^DPro-Oic-) (peptide) | 548 | 11.6
cyclo(-Trp-Cyp-Trp-Dab-^DPro-Pro(5,5Me2)-) (peptide) | 82.5 | 14.2
cyclo(-Trp-Cyp-Trp-Dab(MePpzCO)-^DPro-Oic-) (peptide) | 53.9 | 5.3
cyclo(-Trp-Cyp-Trp-Dab(4Me2NPhSO2)-^DPro-Oic-) (peptide) | 6.4 | 
cyclo(-Trp-Cyp-Trp-Dab-^DAze-Tic-) (peptide) | 57 | 
cyclo(-Trp-Cyp-Trp-Dab-^DPro-Hyp(Ph)-) (peptide) | 42 | 37
cyclo(W[Aib]WR[dP][Tic]) | 226 | 94
cyclo(-Phe(4CN)-Cyp-Trp-Ser-^DPro-Hyp(4BrBn)-) (peptide) | 5.3 | 0.6
cyclo(W[Deg]W[Dab][dP][Oic]) | 146 | 76.1
cyclo(-Trp(5OH)-Cyp-Trp-Arg-^DPro-Tic-) (peptide) | 52.5 | 
cyclo(-Trp-Cyp-Trp-Lys((5R)OH)-^DPro-Oic-) (peptide) | 333 | 7
cyclo(-Trp-Cyp-Trp-Gln-^DPro-Oic-) (peptide) | 44.3 | 
cyclo(-Trp-Cyp-Trp-Arg-^DAze-Tic-) (peptide) | 70.4 | 
cyclo(-Trp-Cyp-Trp-alloThr-^DPro-Oic-) (peptide) | 11.6 | 1.2
cyclo(-Nle(6OBn)-Cyp-Trp-Dab-^DPro-Oic-) (peptide) |  | 16.6

Next, values leading:

IC50 (nM) Calcium Flux Assay [nM] | IC50 (nM) Chemotaxis Assay [nM] | Substance
246 |  | cyclo(-Trp(5OH)-Cyp-Trp(5OH)-Dap-^DPro-Oic-) (peptide)
25 | 3.7 | cyclo(-Trp-Cyp-Trp-hArg-^DPro-Oic-) (peptide)
48.9 | 6.6 | cyclo(-Tyr(40HPh)-Cyp-Trp-Dab-^DPro-Oic-) (peptide)
353 | 1.7 | cyclo(W[Ac4c]W[Dab][dP][Oic])
41.1 | 3.2 | cyclo(-Phe(3CF3)-Cyp-Trp-Dab-^DPro-Oic-) (peptide)
65.8 | 14 | cyclo(-Trp-Cyp-Trp-Dab-^DPro-Hyp(Bn)-) (peptide)
476 | 14.7 | cyclo(-Phe(4COOMe)-Cyp-Trp-Dab-^DPro-Oic-) (peptide)
3 | 2.7 | cyclo(-Trp-Cyp-Trp-Lys(Bz)-^DPro-Oic-) (peptide)
602 | 208 | cyclo(-Trp-Cyp-Tyr(Ph)-Dab-^DPro-Oic-) (peptide)
280 | 48 | cyclo(-Phe(4CN)-Cyp-Trp-Dab-^DPro-Oic-) (peptide)
